Drawing on PMC5605508, this text covers Kd for 2 substances.

For data set [1], the target named is SSBΔC8 (Escherichia coli) (UniProt P0AGE0). Nature of the data set: EMSA. Conditions: Buffer 1: 25 mM Tris-HCl, 10 mM Mg acetate, 3 mM K glutamate, pH 7.5, room temperature (TPM: 2 uM RecA, 2 mM ATP, 1 mM DTT, 1 mg/mL BSA); buffer 2: 10 mM Tris ….
Data set [2] addresses wtSSB (Escherichia coli) (UniProt P0AGE0). As to the kind of experiment: EMSA. Conditions: Buffer 1: 25 mM Tris-HCl, 10 mM Mg acetate, 3 mM K glutamate, pH 7.5, room temperature (TPM: 2 uM RecA, 2 mM ATP, 1 mM DTT, 1 mg/mL BSA); buffer 2: 10 mM Tris …. In general terms: A gel shift assay detects complexes by their altered migration in electrophoresis.
The target in data set [3] is SSBΔC8 (Escherichia coli) (UniProt P0AGE0). As to the kind of experiment: SPR. As to conditions: 10 mM Mg acetate, 3 mM K glutamate, pH 7.5, room temperature (TPM: 2 uM RecA, 2 mM ATP, 1 mM DTT, 1 mg/mL BSA).
Data set [4] deals with wtSSB (Escherichia coli) (UniProt P0AGE0). Nature of the data set: SPR. As to conditions: 10 mM Mg acetate, 3 mM K glutamate, pH 7.5, room temperature (TPM: 2 uM RecA, 2 mM ATP, 1 mM DTT, 1 mg/mL BSA).
The mark [5] stands for this setting: buffer 1, 0.005% Tween-20, Buffer 1: 25 mM Tris-HCl, buffer 2: 10 mM Tris ….
Where [6] appears, read: buffer 2 (10 mM Tris, 0.1 mM Na3EDTA, pH 8.1), 0.005% Tween-20, Buffer 1: 25 mM Tris-HCl.

For 55 nt ssDNA overhang (EMSA), the Kd – broadly, the constant that tells how readily two partners part at equilibrium – amounted to 0.0139 µM in data set [1] and 0.00404 µM with wtSSB (Escherichia coli) [2].

55 nt ssDNA overhang (SPR): the Kd is 0.0047 µM in data set [3] (setting [5]), 0.0891 µM in data set [3] (setting [6]), 0.024 µM in the data set with wtSSB (Escherichia coli) [4] (setting [5]) and 0.145 µM with wtSSB (Escherichia coli) [4] (setting [6]).
